# Measured values: the supplement of paper PMC9170038
# Tested on: MS2 coat protein
# Experiment: apparent KD of MS2 coat protein; designed switch direction (-1 OFF switch, 1 ON switch): 1; higher = weaker reporter binding
# Outline: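 An oligonucleotide input, 200 uM small-molecule ligand, or no input was present during titration of SNAP-549-labelled MS2 coat protein, which was doubled from 0.7 or 1.5 nM to 3 µM. Designed RNA switches had been transcribed on Illumina chips by stalled E. coli RNA polymerase. Apparent KD per design is the median over clusters of curves fitted to normalised cluster fluorescence.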
# [1] = input ligand: microRNA oligo, concentration not stated
# [2] = Eterna round: R95, input ligand: FMN 200 uM
# [3] = Eterna round: R95, input ligand: microRNA oligo, concentration not stated
# [4] = Eterna round: R95, input ligand: none
Sequence,apparent KD of MS2 coat protein (input ligand: FMN 200 uM) [nM],apparent KD of MS2 coat protein [1] [nM],apparent KD of MS2 coat protein (input ligand: none) [nM],apparent KD of MS2 coat protein [2] [nM],apparent KD of MS2 coat protein [3] [nM],apparent KD of MS2 coat protein [4] [nM]
"GUUAGGAAUCUAGCAUACAUGAGGAUCACCCAUGUUAGUGGGAAGGAUAUGGUACAGAAACUGUACCAGAAGGUCUUAUUGUUU [Omei SS(NG) 3 AV12] (Eterna round: R96, puzzle: Same State NG 3)",210,348,408,–,–,–
"GUUAGGAAUCUAGCGAACAUGAGGAUCACCCAUGUUAGUGGGAAGGAUAUGGUACAGAAACUGUACCAGAAGGUCUUAUUGUUU [Omei SS(NG) 3 AV11] (Eterna round: R96, puzzle: Same State NG 3)",–,332,–,–,–,–
"GUUGAAUUGCAAGGAUAUCUUAGUCAGACGCUAAGAGAAGGUGCUUUACAGUUACAUGAGGAUCACCCAUGUCUUUCUUUUGAU [Jens NG1-01] (Eterna round: R96, puzzle: Same State NG 1)",23.4,20.2,28.5,–,–,–
"GUUGAGAAAUAAGGAUAUACAUGGAAGACACAUGAGGAUCACCCAUGUGGGAGGGAAACCAGGAGGUAGAAGGUAUUGGGAAAC [AK SSNG2-V2-23] (Eterna round: R96, puzzle: Same State NG 2)",33.1,24.1,43.7,–,–,–
UAAACUUCUUUUAGUGUAAUGCAAGUGAAACAUGAGGAUCACCCAUGUAAAGGAUCGUGAUAUUUUGUUCGUCUUAA [JR_SHM208A_Sub076] (puzzle: Sensor for hsa-mir-208a),–,–,–,57.2,32.5,83
"UAAAGAUCGCGAGGAUAUCGCGAGGAUCACCCGUGAGAAGGCGCAGAGCCGAGGAUCACCCGGCUGAUCCUGAGGAGGAGGUCA (Eterna round: R96, puzzle: Same State NG 1)",204,213,302,–,–,–
"UAAAGCAAGUCAGGAUAUGGGAAAGGAAGUGUACUAGAAGGGACUUGUAGGAACAUGAGGAUCACCCAUGUACCGCGGACUAAA [PowerStrip SSNG 1.7] (Eterna round: R96, puzzle: Same State NG 1)",31.7,42.6,47.8,–,–,–
"UAAAUAAUGAUAGGAUAUACAUGAGGAAUUCUCGUAGAAGGAUCAUGACAUGAGGAUCACCCAUGUAACGCUCGAAAGAGCGUA [Mat - Same State NG 1 - JL mod - D40] (Eterna round: R96, puzzle: Same State NG 1)",556,205,585,–,–,–
"UAACAGUACAAUUUAGAUCUACAUGAGGAUCACCCAUGUACUGAGGAUAUCAGCUCGUGUAGAGCUGAGAAGGCAGAAGAACUA [SSNG3/11-A4] (Eterna round: R96, puzzle: Same State NG 3)",38.1,93.4,173,–,–,–
"UAAUUAAGUCAAGGAUAUCACGUCGAAUAGACGUGAGAAGGUGAUUAAUACAUGAGGAUCACCCAUGUAAUACAUGAAUAAUUA [SSNG1/11-B1] (Eterna round: R96, puzzle: Same State NG 1)",38.3,61.6,70.8,–,–,–
"UACAAUCUAUCUGAGGAUAUCAUGCAUUACACAUGAGGAUCACCCAUGUGCAGGAAAACUGCAUAUGAGAAGGCAGAUAGAUUGU [salish99_ss2_r3_066] (Eterna round: R96, puzzle: Same State 2)",15.5,328,411,–,–,–
UACAAUCUAUCUGAGGAUAUCAUGCAUUACACAUGAGGAUCACCCAUGUGCAGGAAAACUGCAUAUGAGAAGGCAGAUAGAUUGU [salish99_ss2_r3_066] (puzzle: Same State 2),–,–,–,20.1,457,472
UAGAACAAGCUUUUUGCCCGUCUUAGAUAACAUGAGGAUCACCCAUGUAAGGUGAAAGUUAGAGAGUGGAGGAAGAA [JR_SHM208A_Sub054] (puzzle: Sensor for hsa-mir-208a),–,–,–,86.4,217,146
"UAGGGACAUGAGGAUCACCCAUGUGCCUCAUAUGGAGAAACUCAGGAUAUGCUGAGGAUCACCCGGCAGAAGGGAGAUUUGACC (Eterna round: R96, puzzle: Same State NG 3)",24.2,37.1,53.2,–,–,–
UAGUACAAGCUUUUUGCUUGUCUUAUUUAACAUGAGGAUCACCCAUGUAAGUUGAAAGUUAGAGAGUGGAGGUUGAA [JR_SHM208A_Sub050] (puzzle: Sensor for hsa-mir-208a),–,–,–,20,20.4,18.8
"UAGUGAUUGCAAGGAUAUGCUUAUGUUUAAUUUUAUUUAUUAUCUAACAUGAGGAUCACCCAUGUGCAGAAGGUGCUUGAUUUG [JR_SSNG2_Sub074] (Eterna round: R96, puzzle: Same State NG 2)",–,48.4,–,–,–,–

Sequence,apparent KD of MS2 coat protein (input ligand: FMN 200 uM) [nM],apparent KD of MS2 coat protein [1] [nM],apparent KD of MS2 coat protein (input ligand: none) [nM],apparent KD of MS2 coat protein [2] [nM],apparent KD of MS2 coat protein [3] [nM],apparent KD of MS2 coat protein [4] [nM]
"UAGUGCAUUAGAGGAUAUUCUUACGGAAACGUUAAGACAUGAGGAUCACCCAUGUUGUCACAUGGGAAGAAGGCUGAUGUGCUA [Omei SS(NG)2 Bv4] (Eterna round: R96, puzzle: Same State NG 2)",63.6,390,835,–,–,–
"UAUAAACAUGAGGAUCACCCAUGUAAUAAUAUGGGAGGAUAUCAGAAUUUAUUUAUUUAAUGAGAAGGCCUAAUAU [Mat - Same State 1 - Mod of Eli - D67] (Eterna round: R96, puzzle: Same State 1)",–,440,–,–,–,–
UAUAAACAUGAGGAUCACCCAUGUAAUAAUAUGGGAGGAUAUCAGAAUUUAUUUAUUUAAUGAGAAGGCCUAAUAU [Mat - Same State 1 - Mod of Eli - D67] (puzzle: Same State 1),–,–,–,34.5,210,562
"UAUUAGAUCCGAGGAUAUCCUUAUAAGAAACAUGAGGAUCACCCAUGUAAAGGGAAUUAUUUGUAGGAGAAGGCGGAUUUAGUU [JR_SSNG2_Sub055] (Eterna round: R96, puzzle: Same State NG 2)",28.9,23,41.3,–,–,–
UCAAGCGAGAGGCUCGUCUUAUGUAAGGUACAUGAGGAUCACCCAUGUGAGGGACGAUUGAGUUAGAUGGAAUGGAG [JR_SHM208A_Sub033] (puzzle: Sensor for hsa-mir-208a),–,–,–,42.3,121,50.9
UCAAGCGUUUGGCUCGUCUUAUGUUUGGUACAUGAGGAUCACCCAUGUUAUGUACGAUCCAGUUAGAUGGUAUUUUG [JR_SHM208A_Sub037] (puzzle: Sensor for hsa-mir-208a),–,–,–,35.9,127,47.1
"UCAAUCAUGUAAGGAUAUGCAGCCGAAACGGCUGCAGAAGGUACUAUAAUUACAUGAGGAUCACCCAUGUUAUAAAAUAAAUAU [Mat - Same State NG 1 - JL mod - D80] (Eterna round: R96, puzzle: Same State NG 1)",40.9,92.7,160,–,–,–
"UCGAGCGUACUUGCAGACAUGAGGAUCACCCAUGUAAAUGGGAAGGAUAUGGUACCGUUUCGGUACCAGAAGGUCCUAAGUGCU [salish99_SSNG3_r04_304] (Eterna round: R96, puzzle: Same State NG 3)",166,862,1440,–,–,–
"UCUCGGCACGCAGGAUAUCCCGCUUCCUGGUGAGGAGAAGGGUGGUCGGGAAAACAUGAGGAUCACCCAUGUAAAAGUAAGAGG [Usdidige] (Eterna round: R96, puzzle: Same State NG 1)",41.6,61.3,183,–,–,–
"UCUGCAUGAACAGGAUAUGGGUUCAGAGCGGGAGUGCGCUUUGACACAUGAGGAUCACCCAUGUCCCAGAAGGGUUCAAGCGGC [Rianbein] (Eterna round: R96, puzzle: Same State NG 2)",47.7,219,430,–,–,–
UCUUGGUUUUUGCUCGUUUUUUGUGUUGAACAUGAGGAUCACCCAUGUAUUGUACGGUCCAGUUUAAUAAUGGUCCA [JMF 6] (puzzle: Sensor for hsa-mir-208a),–,–,–,25.9,14.4,26
"UGAACCUUCACAGGAUAUCAUGCGAAAAUUGCGUGAGAAGGGUGGAUGUGGCGUUCAUAGUUGCACAUGAGGAUCACCCAUGUA [SameState NG1 #50] (Eterna round: R96, puzzle: Same State NG 1)",257,212,134,–,–,–
UGAGCCGGCACUGAGGAUAUUCAUAUUUAAACAUGAGGAUCACCCAUGUAGGCCAGAAGGCCUUGGGAGAAGGCAGGUCGGCUCU [salish99_ss2_r3_078] (puzzle: Same State 2),–,–,–,–,258,–
UGCAUACAUGAGGAUCACCCAUGUCAACGUAGCCGAGGAUAUGGAUUGCCGUGAGGCGUGCCAGAAGGCGGAGAGG [Same State 1 - Mod of Vinnie Teenbexe] (puzzle: Same State 1),–,–,–,29.1,42.5,59
UGCAUACAUGAGGAUCACCCAUGUCAACGUAGUCGAGGAUAUGGGCAGCCGUGAGGCGUACCAGAAGGCGAAGAGG [JL-ss1-3.04 ViennaUCT mod] (puzzle: Same State 1),–,–,–,28.7,62.2,77.9
